Read-outs that look alike come from different tables or passages of the source. Ends that are not written are not given here. Peptide text beside a SMILES is read from it. * marks the point of attachment. X1 = C=CC1=C(C)c2cc3[nH]c(cc4nc(cc5[nH]c(cc1n2)c(C)c5CCC(=O)*)C(CCC(=O)O)=C4C)c(C)c3C=C; X3 = C=CC1=C(C)c2cc3[nH]c(cc4nc(cc5[nH]c(cc1n2)c(C)c5CCC(=O)O)C(CCC(=O)*)=C4C)c(C)c3C=C; X2 = CCC1=C(C)c2cc3[nH]c(cc4nc(cc5[nH]c(cc1n2)c(C)c5CCC(=O)O)C(CCC(=O)*)=C4C)c(C)c3CC; X4 = CCC1=C(C)c2cc3[nH]c(cc4nc(cc5[nH]c(cc1n2)c(C)c5CCC(=O)*)C(CCC(=O)O)=C4C)c(C)c3CC
Key:
[1] = system: JEG-3 cells; conditions: JEG-3, concentrations of up to 50 µM, 24 h
Procedure: (§2) HBEC-5i cells and JEG-3 cells were plated in attachment factor protein and rat-tail collagen, respectively, pre-coated 96-well flat bottom clear, black polystyrene plate (Corning, New York, USA). Afterwards cells were cultured in complete medium at 37 °C in a 5% CO2 atmosphere, with medium replaced every 2 days. When the cellular monolayer was formed, cells were treated with various concentrations of conjugates in the 6.25-50 µM range, for 24 h at 37 °C in a 5% CO2 atmosphere. Viability was evaluated by the CellTiter-Blue® assay (Promega, WI, USA), based on resazurin reduction into highly fluorescent resorufin by metabolically active cells. By distinguishing metabolic from non-metabolic cells, cytotoxicity can be indirectly determined. After incubation, cells were washed with PBS, pH 7.4, and 15 µL of CellTiterBlue® reagent in 100 µL of complete medium was added to the cells and incubated for 1.5 h at 37 °C in 5% CO2. Fluorescence (λex=560 nm, λem=590 nm), was measured in a Varioskan Lux plate reader. Complete medium and medium containing 0.25% Triton X-100 were used as positive and negative controls (100 and 0% viability), respectively. Cell viability (%) was determined as: Cell viability(%) = (F_treated−F_blank)/(F_(nontreated)−F_blank) × 100 [formula] where Ftreated is the fluorescence intensity of cells treated with a conjugate, Fnon treated is the fluorescence of untreated cells and Fblank is the fluorescence of CellTiterBlue® reagent in complete medium without cells.

[2] = system: JEG-3 cells; conditions: FD4 content in basolateral side after 24 h incubation with compound, then 2 h FD4; untreated BPB 1.23%
Procedure: (§3) After 24 h incubation with conjugates in the set-up shown in Figure 1, an in vitro integrity assay was performed. HBEC-5i (for BBB) or JEG-3 (for BPB) cells were washed twice with PBS and once with a medium without phenol red. DMEM:F12 medium was used with HBEC-5i cells and EMEM medium was used with JEG-3 cells. Then, previously diluted 4 kDa fluorescein isothiocyanate-dextran (FD4) (Sigma-Aldrich, Spain) in the medium indicated above for each cell line and without phenol red to an absorbance of 0.1 was added to the apical side (1) and incubated for 2 h. Samples were collected at the basolateral side (2), and fluorescence intensity was measured at λex=493 nm and λem=520 nm using a Varioskan Lux plate reader. Barrier integrity was evaluated from FD4 permeability as follows: FD4 Permeability(%) = (Fi −Fcells)/(FFD4 −FMedium) × 100 [formula] where Fi is the fluorescence intensity of the sample at the basolateral side (2), Fcells is the intrinsic fluorescence intensity of cells without FD4 incubation, FFD4 is the intensity of FD4 stock initially added to the apical side (1), and FMedium is the intensity of the medium indicated above for each cell line and without phenol red.
JEG-3 cells were cultured as a monolayer on T-flasks in EMEM supplemented with 10% (v/v) FBS and 1% (v/v) Pen-Strep. Cells were grown in a humidified atmosphere of 5% CO2 at 37 °C with the medium changed every other day. Cells were allowed to grow until confluence in a culture T-flask, then carefully harvested with trypsin-EDTA and seeded (3000 cells/well) onto rat-tail collagen-coated tissue culture 24-well inserts (4). A cellular monolayer (3) with low permeability was formed 5 days after the incubation on the tissue culture insert (4).

[3] = system: HBEC-5i cells; conditions: concentrations of up to 50 µM, 24 h
Procedure: as §2

[4] = system: HBEC-5i cells; conditions: 10 µM on apical side, 24 h incubation; percentage of compound in the basolateral side
Procedure: HBEC-5i cells were cultured as a monolayer (3) on T-flasks in DMEM:F12 supplemented with 10% (v/v) FBS, 1% (v/v) Pen-Strep and 1% (v/v) ECGS. Cells were grown in a humidified atmosphere of 5% CO2 at 37 °C (MCO-18AIC (UV), Sanyo, Japan) with the medium changed every other day. Cells were allowed to grow until confluence in a culture T-flask, then carefully harvested with trypsin-EDTA and seeded (8000 cells/well) into tissue culture 24-well inserts (4) (transparent polyester membrane with 1.0 µm pores) (BD Falcon, USA) pre-coated with attachment factor protein solution. The medium was changed every other day for 5-8 days, afterwards cells were washed with 1 × PBS followed by DMEM:F12 medium without phenol red. Next, the conjugates were diluted in DMEM:F12 without phenol red, until reaching a final 10 µM concentration, and were added to the apical side (1) of the in vitro BBB model.
(§4) Conjugate translocation was determined by fluorescence intensity (λex= 410 nm, λem = 625 nm for MP conjugates; λex=410 nm, λem=635 nm for PP conjugates). […] After 24 h incubation, samples from the basolateral side (2) were collected and analyzed. Fluorescence was measured in a Varioskan Lux plate reader (Thermo Scientific). PPC translocation (%) was calculated as follows: PPC translocation(%) = (F_i−Fcells)/(F_PPC−F_Medium) × 100 [formula] where Fi is the fluorescence intensity of the sample collected at the basolateral side (2), Fcells is the intrinsic fluorescence intensity of cells without incubation with a peptide-protein conjugate PPC, FPPC is the intensity of total PPC initially added to the transwell apical side (1), and FMedium is the intensity of DMEM:F12 medium without phenol red.

[5] = system: JEG-3 cells; conditions: 10 µM on apical side, 24 h incubation; percentage of compound in the basolateral side
Procedure: as §4
JEG-3 cells were cultured as a monolayer on T-flasks in EMEM supplemented with 10% (v/v) FBS and 1% (v/v) Pen-Strep. Cells were grown in a humidified atmosphere of 5% CO2 at 37 °C with the medium changed every other day. Cells were allowed to grow until confluence in a culture T-flask, then carefully harvested with trypsin-EDTA and seeded (3000 cells/well) onto rat-tail collagen-coated tissue culture 24-well inserts (4). A cellular monolayer (3) with low permeability was formed 5 days after the incubation on the tissue culture insert (4). BPB translocation and integrity measurement methods are identical to those for the BBB in vitro model defined above.

[6] = Serum stability in human serum; type: in vitro ADME; conditions: for half-life at 0.05 mM: human serum (1:1 v/v with HEPES buffer), pH 7.8, 37 °C, read-out: Serum half-life time (converted)
Procedure: Next, 600 µL of the solution comprising the conjugate or peptide were mixed (1:1 v/v) with 600 µL of human serum, to reach a final concentration of 0.05 mM. The mixture was incubated at 37 °C and, at various time points, 50 µL (in triplicate) were taken and precipitated with 200 µL cold methanol. The samples were centrifuged at 13000 rpm, 10 min, +4 °C. Afterwards, 50 µL of each supernatant were injected on an LC-20AD instrument (Shimadzu) equipped with a Luna C18 column (4.6 mm × 50 mm, 3 µm, Phenomenex, USA) and analyzed using a 0%-95% linear gradient of MeCN into 0.1% TFA in H2O over 15 min with 1 mL/min flow rate. PDA detection at 220 nm and 401 nm was used and the half-life times were calculated by peak area integration at 401 nm, the λmax of MP and PP. Controls included blank serum (25 µL each of 1:1 v/v serum + HEPES buffer, then precipitation with 200 µL cold methanol), untreated conjugate/peptide (25 µL of 0.1 mM stock in HEPES buffer + 25 µL HEPES buffer, then precipitation with 200 µL cold methanol), and a zero-time sample (200 µL cold methanol + 25 µL serum + 25 µL 0.1 mM conjugate/peptide stock), the conjugate/peptide added last to avoid any contact with protease. Controls were analyzed by LC and LC-MS as described above.

[7] = system: HBEC-5i cells; conditions: FD4 content in basolateral side after 24 h incubation with compound, then 2 h FD4; untreated BBB 10.3%
Procedure: as §3

[8] = system: ZIKV; conditions: read-out: IC50 value for inactivation of ZIKV, cited from earlier work
[9] = system: ZIKV^BR; conditions: virus pre-treated 1 h at 37 °C, in the dark, 0.01-50 µM
Procedure: ZIKV^BR was propagated in C6/36 cells using a multiplicity of infection (MOI) of 0.01. After infection, cells were cultured for 7 days. The culture medium collected from the infected cultures was centrifuged at 700 g to remove cellular debris, stored in aliquots at -80 °C and titrated by plaque assay.
To determine the effect of conjugates on ZIKV^BR as prepared above, 10^5 plaque forming units (PFU) were pre-treated with different concentrations of conjugates in the 0.01-50 µM range for 1 h at 37 °C, in the dark. After treatment, viral samples were serially diluted (10-fold) for titration by plaque assay. Samples were incubated for 1 h at 37 °C and 5% CO2 with Vero cells. After infection, the medium was removed and 1 mL DMEM containing 1% (v/v) FBS, 100 U/mL penicillin, 100 µg/mL streptomycin and 1.5% carboxymethylcellulose was added to each well. The plates were incubated at 37 °C and 5% CO2. After 5 days cells were fixed by 1 mL of 4% (v/v) formaldehyde in H2O for 30 min. Each plate was washed and stained with a 1% (v/v) crystal violet, 20% (v/v) ethanol solution. The number of plaques on each well was counted and corrected for well dilution to determine the pfu/mL number. The half-maximum inhibitory concentration (IC50) was determined by non-linear regression with sigmoidal profile and variable slope using the software Graphpad Prism (version 6.0), only on treatments that achieved total inhibition.

[10] = system: HBEC-5i cells
Procedure: as §3

[11] = system: ZIKV^BR; assay: ZIKV inactivation assay (plaque assay on Vero cells); type: cell-based, Zika virus; conditions: virus pre-treated 1 h at 37 °C, in the dark, 0.01-50 µM
[12] = system: JEG-3 cells; assay: in vitro BPB integrity assay (FD4 permeability) after translocation assay; type: cell-based
[13] = system: JEG-3 cells; type: in vitro ADME; conditions: human, 24 h, 10 µM
Procedure: (§1) PPC translocation (%) was calculated as follows: […]

[14] = system: HBEC-5i cells; type: in vitro ADME; conditions: human, 24 h, 10 µM
Procedure: as §1

Molecule	altered cell viability [1]	BPB FD4 (%) [2] [%]	altered cell viability [3]	BBB translocation (%) [4] [%]	BPB translocation (%) [5] [%]	half-life at 0.05 mM [6] [h]	BBB FD4 (%) [7] [%]	IC50 [9] [µM]	also measured
C=CC1=C(C)c2cc3[nH]c(cc4nc(cc5[nH]c(cc1n2)c(C)c5CCC(=O)N[C@H](C(=O)N[C@@H](CCC(N)=O)C(=O)N[C@@H](CCC(N)=O)C(=O)N[C@@H](CC(C)C)C(=O)N[C@H](C(=O)N[C@@H](CCCCN)C(=O)N[C@@H](CCCNC(=N)N)C(=O)N[C@@H](Cc1ccccc1)C(=O)N[C@@H](CO)C(=O)N[C@@H](CC(C)C)C(N)=O)[C@@H](C)O)C(C)C)C(CCC(=O)O)=C4C)c(C)c3C=C [(I)] (X1-VQQLTKRFSL-NH2)	none	0.83	none	43.6	21.2	22.2	13.6	–	–
C=Cc1c(C)c2cc3[nH]c(cc4nc(cc5nc(cc1[nH]2)C(C)=C5CCC(=O)[O-])C(CCC(=O)[O-])=C4C)c(C)c3C=C.[Co+2] [CoPPIX]	–	–	–	–	–	–	–	–	IC50 ([8]; with light activation): 5.79 µM; IC50 ([8]; without light activation): 2.49 µM
CCC1=C(C)c2cc3[nH]c(cc4nc(cc5[nH]c(cc1n2)c(C)c5CCC(=O)O)C(CCC(=O)NCCCC[C@H](NC(=O)[C@H](CC(C)C)NC(=O)[C@H](CO)NC(=O)[C@H](Cc1ccccc1)NC(=O)[C@H](CCCNC(=N)N)NC(=O)[C@H](CCCCN)NC(=O)[C@@H](NC(=O)[C@H](CC(C)C)NC(=O)[C@H](CCC(N)=O)NC(=O)[C@H](CCC(N)=O)NC(=O)[C@@H](N)C(C)C)[C@@H](C)O)C(N)=O)=C4C)c(C)c3CC [Compound P2-MP] (H-VQQLTKRFSLK(X2)-NH2)	none	1.30	none	25.5	6.9	10.7	14.5	> 50	–
C=CC1=C(C)c2cc3[nH]c(cc4nc(cc5[nH]c(cc1n2)c(C)c5CCC(=O)NCCCC[C@H](NC(=O)[C@H](CC(C)C)NC(=O)[C@H](CO)NC(=O)[C@H](Cc1ccccc1)NC(=O)[C@H](CCCNC(=N)N)NC(=O)[C@H](CCCCN)NC(=O)[C@@H](NC(=O)[C@H](CC(C)C)NC(=O)[C@H](CCC(N)=O)NC(=O)[C@H](CCC(N)=O)NC(=O)[C@@H](N)C(C)C)[C@@H](C)O)C(N)=O)C(CCC(=O)O)=C4C)c(C)c3C=C [Compound P2-PP] (H-VQQLTKRFSLK(X1)-NH2)	none	0.90	none	35.1	7.9	3.6	13.7	> 50	–
CCC1=C(C)c2cc3[nH]c(cc4nc(cc5[nH]c(cc1n2)c(C)c5CCC(=O)O)C(CCC(=O)NCCCC[C@H](NC(=O)[C@H](Cc1ccc(O)cc1)NC(=O)[C@H](CCC(=O)O)NC(=O)[C@H](CCC(=O)O)NC(=O)[C@H](CCC(N)=O)NC(=O)[C@@H](NC(=O)CNC(=O)[C@@H](N)CO)[C@@H](C)O)C(N)=O)=C4C)c(C)c3CC [Compound P4-MP] (H-SGTQEEYK(X2)-NH2)	none	1.1	none	45.8	13	3	15.6	> 50	–
C=CC1=C(C)c2cc3[nH]c(cc4nc(cc5[nH]c(cc1n2)c(C)c5CCC(=O)O)C(CCC(=O)NCCCC[C@H](NC(=O)[C@H](Cc1ccc(O)cc1)NC(=O)[C@H](CCC(=O)O)NC(=O)[C@H](CCC(=O)O)NC(=O)[C@H](CCC(N)=O)NC(=O)[C@@H](NC(=O)CNC(=O)[C@@H](N)CO)[C@@H](C)O)C(N)=O)=C4C)c(C)c3C=C [Compound P4-PP] (H-SGTQEEYK(X3)-NH2)	none	1.2	none	42.8	15.6	3.3	10.6	> 50	–
CCC1=C(C)c2cc3[nH]c(cc4[nH]c(cc5nc(cc1n2)C(C)=C5CC)c(C)c4CCC(=O)O)c(CCC(=O)O)c3C [MP, mesoporphyrin IX]	–	–	–	–	–	–	–	–	BBB FD4 (%) [10]: 17.9%; IC50 [11]: > 50 µM; BPB FD4 (%) [12]: 1.68%
CCC1=C(C)c2cc3[nH]c(cc4nc(cc5[nH]c(cc1n2)c(C)c5CCC(=O)N[C@H](C(=O)N[C@@H](CCC(N)=O)C(=O)N[C@@H](CCC(N)=O)C(=O)N[C@@H](CC(C)C)C(=O)N[C@H](C(=O)N[C@@H](CCCCN)C(=O)N[C@@H](CCCNC(=N)N)C(=O)N[C@@H](Cc1ccccc1)C(=O)N[C@@H](CO)C(=O)N[C@@H](CC(C)C)C(N)=O)[C@@H](C)O)C(C)C)C(CCC(=O)O)=C4C)c(C)c3CC [MP-P1] (X4-VQQLTKRFSL-NH2)	none	1.16	none	30	6.9	16.2	19.9	> 50	–
CCC1=C(C)c2cc3[nH]c(cc4nc(cc5[nH]c(cc1n2)c(C)c5CCC(=O)N[C@@H](CO)C(=O)NCC(=O)N[C@H](C(=O)N[C@@H](CCC(N)=O)C(=O)N[C@@H](CCC(=O)O)C(=O)N[C@@H](CCC(=O)O)C(=O)N[C@@H](Cc1ccc(O)cc1)C(N)=O)[C@@H](C)O)C(CCC(=O)O)=C4C)c(C)c3CC [MP-P3] (X4-SGTQEEY-NH2)	none	1.17	none	46.6	14.2	21.1	14.6	25.1	–
C=CC1=C(C)c2cc3[nH]c(cc4nc(cc5[nH]c(cc1n2)c(C)c5CCC(=O)O)C(CCC(=O)O)=C4C)c(C)c3C=C [PP, protoporphyrin IX]	–	–	–	–	–	–	–	–	BPB translocation (%) [13]: 14.2%; BBB translocation (%) [14]: 47.8%; BBB FD4 (%) ([10]; human, 2 h, 10 µM): 24.7%; IC50 ([11]; Zika virus, Vero): > 50 µM; BPB FD4 (%) ([12]; human, 2 h, 10 µM): 0.87%
C=CC1=C(C)c2cc3[nH]c(cc4nc(cc5[nH]c(cc1n2)c(C)c5CCC(=O)O)C(CCC(=O)N[C@@H](CO)C(=O)NCC(=O)N[C@H](C(=O)N[C@@H](CCC(N)=O)C(=O)N[C@@H](CCC(=O)O)C(=O)N[C@@H](CCC(=O)O)C(=O)N[C@@H](Cc1ccc(O)cc1)C(N)=O)[C@@H](C)O)=C4C)c(C)c3C=C [PP-P3] (X3-SGTQEEY-NH2)	none	1.79	none	43.2	18.9	3.7	9.6	> 50	–
VQQLTKRFSL-NH2 [Peptide having SEQ ID NO1, reference compound]	–	–	–	–	–	–	–	–	Serum half-life time ([6]; 0.05 mM, 37 °C): 0.73 h
